Experimental data published in patent publication US20260242478A1 (published 2026).
Where no end group is shown, it is not given here.

B1: Phage-3122 (peptide)
peptide: GMIQCRPAWMCAGL
modifications: cysteine pairing not given here; also: fused to phage pIII, orientation and linker not given here
B2: Phage-3123 (peptide)
peptide: GYPLCIPEWMCAGF
modifications: cysteine pairing not given here; also: fused to phage pIII, orientation and linker not given here
B3: Phage-3124 (peptide)
peptide: SMHWCEPMWMCAGF
modifications: cysteine pairing not given here; also: fused to phage pIII, orientation and linker not given here
B4: Phage-3125 (peptide)
peptide: VNVKCVPSWMCSGF
modifications: cysteine pairing not given here; also: fused to phage pIII, orientation and linker not given here
B5: Phage-3126 (peptide)
peptide: FEILCRPLWMCSGF
modifications: cysteine pairing not given here; also: fused to phage pIII, orientation and linker not given here
B6: Phage-3127 (peptide)
peptide: LDKRCVPVWMCEGF
modifications: cysteine pairing not given here; also: fused to phage pIII, orientation and linker not given here
B7: Phage-3128 (peptide)
peptide: LELACKPEWMCVGF
modifications: cysteine pairing not given here; also: fused to phage pIII, orientation and linker not given here
B8: Phage-3129 (peptide)
peptide: GHQMCVPQWMCDAF
modifications: cysteine pairing not given here; also: fused to phage pIII, orientation and linker not given here
B9: Phage-3130 (peptide)
peptide: SVGYCVPSWMCSGF
modifications: cysteine pairing not given here; also: fused to phage pIII, orientation and linker not given here
B10: Phage-3131 (peptide)
peptide: DAVRCVPSWMCEGF
modifications: cysteine pairing not given here; also: fused to phage pIII, orientation and linker not given here
B11: Phage-3132 (peptide)
peptide: THIICKPAWMCDAW
modifications: cysteine pairing not given here; also: fused to phage pIII, orientation and linker not given here
B12: Phage-3133 (peptide)
peptide: YERSCVPSWMCEGF
modifications: cysteine pairing not given here; also: fused to phage pIII, orientation and linker not given here
B13: Phage-3134 (peptide)
peptide: AERLCVPAWMCLNL
modifications: cysteine pairing not given here; also: fused to phage pIII, orientation and linker not given here
B14: Phage-3135 (peptide)
peptide: HQLMCRPAWMCEGF
modifications: cysteine pairing not given here; also: fused to phage pIII, orientation and linker not given here
B15: Phage-3136 (peptide)
peptide: VVQICKPSWMCEGF
modifications: cysteine pairing not given here; also: fused to phage pIII, orientation and linker not given here
B16: Phage-3137 (peptide)
peptide: IVPKCQPSWMCFGF
modifications: cysteine pairing not given here; also: fused to phage pIII, orientation and linker not given here
B17: Phage-3138 (peptide)
peptide: DTRICKPEWMCMGM
modifications: cysteine pairing not given here; also: fused to phage pIII, orientation and linker not given here
B18: Phage-3139 (peptide)
peptide: TAPVCVPWWMCEGF
modifications: cysteine pairing not given here; also: fused to phage pIII, orientation and linker not given here

target: T1, 006 PSMA Fab (biotinylated (site not stated)); assay: clonal phage ELISA, biotinylated PSMA Fab on neutravidin plate, anti-M13 HRP detection; competitor PSMA antigen
T1 construct: Biotinylated PSMA Fab captured on neutravidin coated plates in the clonal phage ELISA; also called Anti-PSMA Fab; anti-PSMA Fab

Row | Binder | phage binding ELISA signal with PSMA antigen present
1 | EFPLCVPAWMCSGF [Phage-3115] | 0.0859
2 | FHIMCQPEWMCLGF [Phage-3116] | 0.129
3 | SGALCVPLWMCTGF [Phage-3117] | 0.0979
4 | LESMCIPPWMCSGL [Phage-3118] | 0.109
5 | DYHYCEPAWMCFGF [Phage-3119] | 0.0726
6 | NEPWCVPAWMCTGF [Phage-3120] | 0.0834
7 | APVFCKPAWMCPWL [Phage-3121] | 0.0695
8 | B1 | 0.0928
9 | B2 | 0.0968
10 | B3 | 0.0809
11 | B4 | 0.0739
12 | B5 | 0.111
13 | B6 | 0.0828
14 | B7 | 0.0801

target: T2, PSMA Fab (006 PSMA Fab); assay: clonal phage ELISA; biotinylated PSMA Fab on neutravidin plate, blocking buffer alone; anti-M13 HRP detection;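 also: crude clonal phage supernatants added without washing to wells pretreated with blocking buffer with or without PSMA antigen, short incubation, then washed before detecting bound phage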
T2 construct: also called Anti-PSMA Fab; anti-PSMA Fab
Description: (§1) Clonal phage were harvested as crude supernatants and screened via standard ELISAs. […] Prior to the addition of clonal phage. wells were incubated with blocking buffer and PSMA antigen or blocking buffer alone. Without washing or aspirating, clonal phage supernatants were then added to the wells and incubated for a short time. Wells were then washed followed by detection of bound phage using a horse radish conjugated anti-M13 antibody.

Row | Binder | Phage binding ELISA signal, Anti-PSMA Fab
15 | B8 | 2.06
16 | B9 | 2.06
17 | B10 | 2.06
18 | B11 | 2.06
19 | B12 | 2.06
20 | B13 | 2.06
21 | B14 | 2.06
22 | B15 | 2.06
23 | B16 | 2.06
24 | B17 | 2.06
25 | B18 | 2.05

target: T2, PSMA Fab (006 PSMA Fab); assay: clonal phage ELISA; biotinylated PSMA Fab on neutravidin plate pre-incubated with PSMA antigen as competitor; anti-M13 HRP detection;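 also: crude clonal phage supernatants briefly incubated on wells preloaded with PSMA antigen in blocking buffer, or buffer only as control, bound phage detected with HRP-conjugated anti-M13 antibody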
Description: as §1

Row | Binder | Phage binding ELISA signal, Anti-PSMA Fab in presence of PSMA
26 | B8 | 0.0607
27 | B9 | 0.075
28 | B10 | 0.1
29 | B11 | 0.0691
30 | B12 | 0.066
31 | B13 | 0.0543
32 | B14 | 0.118
33 | B15 | 0.102
34 | B16 | 0.0991
35 | B17 | 0.107
36 | B18 | 0.0757

target: T1, 006 PSMA Fab; assay: clonal phage ELISA, biotinylated PSMA Fab on neutravidin plate, anti-M13 HRP detection, no PSMA antigen
Description: as §1

Row | Binder | phage binding ELISA signal
37 | EFPLCVPAWMCSGF [Phage-3115] | 2.08
38 | FHIMCQPEWMCLGF [Phage-3116] | 2.08
39 | SGALCVPLWMCTGF [Phage-3117] | 2.07
40 | LESMCIPPWMCSGL [Phage-3118] | 2.07
41 | DYHYCEPAWMCFGF [Phage-3119] | 2.07
42 | NEPWCVPAWMCTGF [Phage-3120] | 2.07
43 | APVFCKPAWMCPWL [Phage-3121] | 2.07
44 | B1 | 2.07
45 | B2 | 2.07
46 | B3 | 2.07
47 | B4 | 2.07
48 | B5 | 2.06
49 | B6 | 2.06
50 | B7 | 2.06

target: T3, 006 PSMA Fab; assay: clonal phage ELISA on biotinylated PSMA Fab captured on neutravidin plates, anti-M13 HRP detection;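 also: crude clonal phage supernatants tested, before phage were added, wells were pretreated with PSMA antigen in blocking buffer or with blocking buffer only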
T3 construct: In the panning ELISA the PSMA Fab was biotinylated and captured on neutravidin coated plates; also called Anti-PSMA Fab; anti-PSMA Fab
Description: as §1

Row | Binder | Phage binding ELISA signal, Anti-PSMA Fab
51 | VEPYCKPAWMCTGF [Phage-3093] | 2.1
52 | GAMVCKPAWMCQGF [Phage-3094] | 2.1
53 | YDFRCIPSWMCMGI [Phage-3095] | 2.1
54 | QGRVCEPSWMCTGF [Phage-3096] | 2.09
55 | MERMCRPAWMCTAF [Phage-3097] | 2.09
56 | EHILCRPVWMCEGF [Phage-3098] | 2.09
57 | MGPVCKPAWMCLEF [Phage-3099] | 2.09
58 | PMPVCVPMWMCYGF [Phage-3100] | 2.09
59 | ILPQCVPAWMCSGF [Phage-3101] | 2.09

target: T3, 006 PSMA Fab; assay: clonal phage ELISA on captured PSMA Fab pre-incubated with PSMA antigen as competitor, anti-M13 HRP detection;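 also: crude clonal phage supernatants tested by ELISA, wells first treated with blocking buffer plus PSMA antigen, bound phage read out via HRP-linked anti-M13 antibody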
Description: as §1

Row | Binder | Phage binding ELISA signal, Anti-PSMA Fab in the presence of PSMA antigen
60 | VEPYCKPAWMCTGF [Phage-3093] | 0.11
61 | GAMVCKPAWMCQGF [Phage-3094] | 0.0731
62 | YDFRCIPSWMCMGI [Phage-3095] | 0.0693
63 | QGRVCEPSWMCTGF [Phage-3096] | 0.0561
64 | MERMCRPAWMCTAF [Phage-3097] | 0.107
65 | EHILCRPVWMCEGF [Phage-3098] | 0.101
66 | MGPVCKPAWMCLEF [Phage-3099] | 0.109
67 | PMPVCVPMWMCYGF [Phage-3100] | 0.0842
68 | ILPQCVPAWMCSGF [Phage-3101] | 0.0784
